This data set is described as follows: yeast display, Sf9 membrane polyspecificity reagent, FACS + sequencing; frameworks hold sequencing errors. In short, it runs like this: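 Synthetic nanobody libraries on Saccharomyces cerevisiae BJ5465 were galactose-induced for 36–48 hours, stained 1 hour at 4 °C with 10% biotinylated, detergent-solubilized Sf9 membrane reagent and enriched on streptavidin microbeads. FACS then separated cells into low and high (top ~1%) gates by anti-HA (expression) and streptavidin (reagent binding) fluorescence. Genes were colony-PCR amplified, MiSeq 2 × 250 sequenced and CDR-length filtered. A clone's polyreactivity label is that of its gate of origin.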
For the sequence “QVQLVESGGGLVQAGGSLRLSCAASGSTFALYTMGWYRQAPGKERELVAGITIDGSTNYADSVKGRFTISRDNAKNTVYLQMNSLKPEDTAVYYCNADSYKYPLLKYRSDYWGQGTQVTVSS”, the “polyreactivity (PSR sort gate)” value was “low polyreactivity”.

In the case of “QVQLVESGGGLVQAGGSLRLSCAASGSTFANYAMGWYRQAPGKERELVAGISWRGGRTYYADSVKGRFTISRDNAKNTVYLQMNSLKPEDTAVYYCAAEVLKTRWSYDYWGQGTQVTVSS”, the “polyreactivity (PSR sort gate)” value was “high polyreactivity”.

As to “QVQLVESGGGLVQAGGSLRLSCAASGSTFANYVMGWYRQAPGKEREVVAAISWTGGSTYYADSVKGRFTISRDNAKNTVYLQMHSLKPEDTAVYYCNAASYAWLWHPKSGLYDYWGQGTQVTVSS”, the “polyreactivity (PSR sort gate)” value is reported as “low polyreactivity”.

Regarding “QVQLVESGGGLVQAGGSLRLSCAASGSTFAPNAMGWYRQAPGKERELVAAISSGGDSTNYADYVKGRFTISRDNAKNTVYLQMNSLKPEDTAVYYCAHGYCFVAYDYWGQGTQVTVSS”, the “polyreactivity (PSR sort gate)” value is “low polyreactivity”.

Consider “QVQLVESGGGLVQAGGSLRLSCAASGSTFAQNAMGWYRQAPGKEREYVAAITGTVGSTYYADSVKGRFTISRDNAKNTVYLQMNSLKPEDTAVYYCNTRGFNGRVYPYDYWGQGTQVTVSS”, for which the “polyreactivity (PSR sort gate)” value is given as “low polyreactivity”.

Take “QVQLVESGGGLVQAGGSLRLSCAASGSTFAQYAMGWYRQAPGKEREFVAAITRGGGRTYYADSVKGRFTISRDNAKNSVYLQMNSLKPEDTAVYYCNAVYRYYPFDYWGQGTQVTVSS”: the “polyreactivity (PSR sort gate)” value is “high polyreactivity”.

With “QVQLVESGGGLVQAGGSLRLSCAASGSTFAQYAMGWYRQPPRKERELVAAISRRGASTYYADSVKGLFTISRDIAKNTVYLQMNSLKPEDTAVYYCNAVRGEKMGYWGQGTQVTVSS”, the “polyreactivity (PSR sort gate)” value is given as “high polyreactivity”.

Regarding “QVQLVESGGGLVQAGGSLRLSCAASGSTFARNARGWYRQAPGKERELVAAITTRGSSTYYADSVKGRFTISRDNAKNTVYLQMHSLKPEDTAVYYCAADSRRSWYWGGYRQTGMGYWGQGTQVTVSS”, the “polyreactivity (PSR sort gate)” value is “high polyreactivity”.

As for “QVQLVESGGGLVQAGGSLRLSCAASGSTFARYAMGWYRHAPGKETELVAGIWNTGRTYYADSVKGRFTISRDNAKNTVYLQMNSLKPEDTAVYYCAALYNSPNVTYYYWGQGTQVTVSS”, the “polyreactivity (PSR sort gate)” value is recorded as “high polyreactivity”.

Take “QVQLVESGGGLVQAGGSLRLSCAASGSTFARYAMGWYRPAPGKERELVAVIRSGGSTNYADSVKGRFTISRDNAKNTVYLQMNSLKPEDTAGAADQWTIHRWATYGYWGQGTQVTVSS”: the “polyreactivity (PSR sort gate)” value is “low polyreactivity”.

As for “QVQLVESGGGLVQAGGSLRLSCAASGSTFARYAMGWYRQAPGKERELVAAISKGGDRTYYADSVKGRFTISRDNAKNTVYLQMNSLKPEDTAVYYCAARYTPRRYYYWGQGTQVTVSS”, the “polyreactivity (PSR sort gate)” value was “high polyreactivity”.

Consider “QVQLVESGGGLVQAGGSLRLSCAASGSTFARYAMGWYRQAPGKERELVASITQSSGSTYYADSVKGRFTISRDNAKSTVYLQMNSLKPEDTAVYYCAKVISYGPVPDRYDYWGQGTQVTVSS”, for which the “polyreactivity (PSR sort gate)” value is “high polyreactivity”.

With “QVQLVESGGGLVQAGGSLRLSCAASGSTFARYAMGWYRQAPGKERELVAVITRSGGSTYYADSVKGRFTISRDNAKNTVYLQMNSLKPEDTDVYYCNKYGYKGGVGYDYWGQGTQVTVSS”, the “polyreactivity (PSR sort gate)” value is “high polyreactivity”.

Turning to “QVQLVESGGGLVQAGGSLRLSCAASGSTFASNAMGWYRQAPGKERELVAAITSRDASTYYADSVKGRFTISRDNAKNTVYLQMNSLKPEDTAVYYCATDGYSPAAFDYWGQGTQVTVSS”, the “polyreactivity (PSR sort gate)” value is on record as “low polyreactivity”.

“QVQLVESGGGLVQAGGSLRLSCAASGSTFASYAMGWYIQAPGKERELVAAITDSGGSTYYADSVKGRFTISRDNAKNTVYLQMNSLKPEDTAVYYCAAYGPYFSYHDYDYWGQGTQVTVSS”: the “polyreactivity (PSR sort gate)” value is given as “low polyreactivity”.

Take “QVQLVESGGGLVQAGGSLRLSCAASGSTFASYAMGWYRQAPGKERELVAAIRWRGGTTYYADSVKGRFTISRDNAKNTVNLQMNSLKPEDTAVYYCNADRYYLYYFWGQGTQVTVSS”: the “polyreactivity (PSR sort gate)” value is on record as “low polyreactivity”.

Regarding “QVQLVESGGGLVQAGGSLRLSCAASGSTFATDAMGWYRQAPGTERELVAVISRSGGSTYYADSVKGRFTISRDNAKNTVYLQMNSLKPEDTAVYYCAARLVNKSRWGTLRYDYWGQGTQVTVSS”, the “polyreactivity (PSR sort gate)” value was “high polyreactivity”.

“QVQLVESGGGLVQAGGSLRLSCAASGSTFATNAMGWYRQAPGKERELVAAIRRGGGTYYADSVKGRFTISRDNAKNTVYLQMNSLKPEDTAVYYCAALYGGRRPYEYWGQGTQVTVSS”: the “polyreactivity (PSR sort gate)” value was “high polyreactivity”.

With “QVQLVESGGGLVQAGGSLRLSCAASGSTFATNTLGWYRQAPGKERELVAAISRGTSTKYADSVKGRFTISRDNAKNTVYLQMTCLKPEDTAVSYCNAVSRDKSLYDYWGQGTQVTVSS”, the “polyreactivity (PSR sort gate)” value was “high polyreactivity”.

For “QVQLVESGGGLVQAGGSLRLSCAASGSTFATYAMGWYRQAPGKERELVAAISKSGGSTYYADSVKGRFTISRDNAKNTVYLQMNSLKPEDTAVYYCAAVGPYRWYDYWGQGTQVTVSS”, the “polyreactivity (PSR sort gate)” value is given as “high polyreactivity”.

“QVQLVESGGGLVQAGGSLRLSCAASGSTFATYAMGWYRQAPGKERELVAAITLRGGRTYYADSVKGRFTISRDNAKNTVYLQMNSLKPEDTAVYYCAAEYYYLSFGLTWWRGFDYWGQGTQVTVSS”: the “polyreactivity (PSR sort gate)” value is listed as “high polyreactivity”.

For the sequence “QVQLVESGGGLVQAGGSLRLSCAASGSTFATYAMGWYRQAPGKERELVAVITRGGRTYYADSVKGRFTISRDNAKNTVYLQMNSLKPEDTAVYYCAAKAYTYYARIGFDYCGQGTQVTVSS”, the “polyreactivity (PSR sort gate)” value was “high polyreactivity”.

As for “QVQLVESGGGLVQAGGSLRLSCAASGSTFAVNAMGWYRQAPGKEREFVASIRGSGGRTSYADSVKGRFTISRDNAKNTVYLQMNCLKPEDTAVYYCAARYVGGTWRSGRYPRSDYWGQGTQVTVSS”, the “polyreactivity (PSR sort gate)” value is “high polyreactivity”.

For “QVQLVESGGGLVQAGGSLRLSCAASGSTFAVYAMGWYRQAPGKERELVATITGSGGSTYYADSVKGRFTISRDNAKNTVYLEMNSLKPEDTAVYYCAAEVVAWSLYEDFKTYDYWGQGTQVTVSS”, the “polyreactivity (PSR sort gate)” value is listed as “low polyreactivity”.

Turning to “QVQLVESGGGLVQAGGSLRLSCAASGSTFAVYAMGWYRQPPGKERELVAAITWSGGSTYYADSVKGRFTISRDNAKNTVYLQMNSLKPEDTAVYYCAAVVVRFIYVYFEFEWGQGTQVTVSS”, the “polyreactivity (PSR sort gate)” value is “low polyreactivity”.

Turning to “QVQLVESGGGLVQAGGSLRLSCAASGSTFAWNAMGWYIQAPGKERELVAAISYSGGTTYYADSVKGRFTISRDNAKNTVYLQMNSLKPEDTAVYYCAKWEGHGRNPWGAGTEGDYWGQGTQVTVSS”, the “polyreactivity (PSR sort gate)” value is “low polyreactivity”.

Regarding “QVQLVESGGGLVQAGGSLRLSCAASGSTFAWYAMGWYRQAPGKERELVAAISSTVGSTYYADSVKGRFTISRDNAKNTVYLQLKSLKPEDTAVYYCARYYYRYYIRQLALGASTYDYWGQGTQVTVSS”, the “polyreactivity (PSR sort gate)” value is “high polyreactivity”.

“QVQLVESGGGLVQAGGSLRLSCAASGSTFAYYAMGLYRQAPGKERELVASISWRGGSTYYADSVKGRFTISRDNAKNTVYLQMNSLKPEVTAVYYCAAGRFYKWSRSQEYDYWGQGTQVTVSS”: the “polyreactivity (PSR sort gate)” value was “low polyreactivity”.

For the sequence “QVQLVESGGGLVQAGGSLRLSCAASGSTFAYYAMGWSRQAPGKERELVASISWRGGSTYYADSVKGRFTNSRDNAKNTVYLQMNSLKPEDTAVYYCAAGRFYIWSRSQEYDYWGQGTQVTVSS”, the “polyreactivity (PSR sort gate)” value was “low polyreactivity”.

Take “QVQLVESGGGLVQAGGSLRLSCAASGSTFAYYAMGWYRQAPGKERELVAAISVSGGRTYYADSVKGRFTISRDNAKNTVYLQMNSLKPEDTAVYYCAARLWRDYYWGQGTQVTVSS”: the “polyreactivity (PSR sort gate)” value is on record as “high polyreactivity”.

On to “QVQLVESGGGLVQAGGSLRLSCAASGSTFAYYAMGWYRQAPGKERELVAAISWSGGSTYYADSVKGRFTISRDNAKNTVYLQLNSLKPEDTAVYYCAAGVPSTFQYSYWDYNYWGQGTQVTVSS”, for which the “polyreactivity (PSR sort gate)” value is on record as “low polyreactivity”.

Turning to “QVQLVESGGGLVQAGGSLRLSCAASGSTFAYYAMGWYRQAPGKERELVAAITSSGGSTYYADSVKGRFTISRDNAKNTVYLQMNSLKPEDTAVYYCNARYRRKSWRPFDYWGQGTQVTVSS”, the “polyreactivity (PSR sort gate)” value was “high polyreactivity”.

On to “QVQLVESGGGLVQAGGSLRLSCAASGSTFAYYARGWYRQAPGKERELVASISWRGGSTYYADSVKGRFTISRDNAKNTVYLQMNSLKPEDTAFYYCAAGRFYKWSRSQEYDYWGQGTQVTVSS”, for which the “polyreactivity (PSR sort gate)” value is “low polyreactivity”.

Regarding “QVQLVESGGGLVQAGGSLRLSCAASGSTFCRNAMGWYRQAPGKEREFVAVISISSGTTYADSVKGRFTISRDNAKNTVYLQMNSVKPVDTAVYYCAAAIGVYYIDYRYLGTVEYWGQGTQVNVSS”, the “polyreactivity (PSR sort gate)” value was “low polyreactivity”.

Consider “QVQLVESGGGLVQAGGSLRLSCAASGSTFDANAMGWYRQAPGKERELVAAITSNGGSTYYADSVKGRFTISRDNAKNTVYLQMNSLKPEDTAVYYCDTEQHTVQDYDYWGQGTQVTVSS”, for which the “polyreactivity (PSR sort gate)” value is given as “low polyreactivity”.

As to “QVQLVESGGGLVQAGGSLRLSCAASGSTFDANAMGWYRQAPGKERELVADITVRDGSTYYADSVKGRFTISRDNAKNTVYLQMNSLKPEDTAVYYCNAGRYTGGYSPGYGYWGLGTQVTVSS”, the “polyreactivity (PSR sort gate)” value is “low polyreactivity”.

Consider “QVQLVESGGGLVQAGGSLRLSCAASGSTFDAYAMGWYRQAPGKDRELVAGISSGGSYEYADSVKGRFTISRDNAKNTVYLQMNSLIPEDTAVYYCAADSRQSVYYYQPTKFDYWGQGSQVTVSS”, for which the “polyreactivity (PSR sort gate)” value is listed as “low polyreactivity”.

As for “QVQLVESGGGLVQAGGSLRLSCAASGSTFDFYAMGWYRQAPGKERELVARISSGGGRTYYADSVKGRFTISRDNAKNTVYLQLNSLKPEDTAVYYCATDYPWIFGHFLMDYWGQGTQVTVSS”, the “polyreactivity (PSR sort gate)” value was “low polyreactivity”.

Consider “QVQLVESGGGLVQAGGSLRLSCAASGSTFDGNAMGWYRQAPGKERELDAAISWNSGSTYYADSVKGRFTISRDNAKNTVYLQMNSLKPEDTAVYYCAATYGTGRRSKYGYWGQGTQVTVSS”, for which the “polyreactivity (PSR sort gate)” value is on record as “high polyreactivity”.

As to “QVQLVESGGGLVQAGGSLRLSCAASGSTFDGYAMGWSRQAPGKERELVGSITRRGGSTYYADSVKGRFTISRDNAKNTVYVQMNSLKPEDTAVYYCAVLGRGVSGYTWPYDYWGQGTQVTVSS”, the “polyreactivity (PSR sort gate)” value is recorded as “high polyreactivity”.

(Values after the nanobody polyreactivity screen of Harvey et al. (2022).)
